{
  "source": "paper PMC10746204",
  "origin": "cited, not measured here",
  "target": "IFNAR2 (Homo sapiens) (UniProt P48551)",
  "sequence (P48551 27-243)": "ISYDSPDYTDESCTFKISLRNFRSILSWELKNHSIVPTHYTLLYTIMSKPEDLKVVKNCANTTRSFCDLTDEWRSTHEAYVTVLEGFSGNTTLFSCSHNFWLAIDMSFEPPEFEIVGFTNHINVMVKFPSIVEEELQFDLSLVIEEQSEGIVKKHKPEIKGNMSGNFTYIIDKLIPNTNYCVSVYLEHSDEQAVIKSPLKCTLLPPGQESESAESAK",
  "note": "pKd: −log10 of the molar value.",
  "data": [
    {"substance": "IFNα14 (from UniProt P01570)", "values": [
      {"measurement": "pKd", "result": 9.15}
    ]}
  ]
}
